Laboratory results from US20100137190A1, “LIQUID COMPOSITION FOR EXTERNAL APPLICATION AND PREPARATION FOR EXTERNAL APPLICATION FOR TREATMENT OF SKIN ULCER” (priority 2006, published 2010).
Entries after “also recorded” stand apart in the source; their conditions may differ.

Test system: ulcer model of delayed skin wound healing (60 sec ethanol exposure model)
Experiment: Healing effect of GM-CSF external agent on intractable skin ulcer
Type: in vivo
Protocol: By using a C57BL/6 mouse, an ulcer model of delayed skin wound healing as an intractable skin ulcer model was produced. Specifically, full thickness dorsal skin tissue with a size of 2×1.5 cm of a C57BL/6 mouse was excised, whereby the fascia was exposed with almost no bleeding. Then, the wound area was completely covered with cotton which had been sufficiently soaked in 70% ethanol, whereby ethanol exposure for 30 sec, 60 sec, 300 sec and 600 sec was carried out. After that, the wound area was air-dried, and the area of the wound area was measured (day 0). 7 days after completion of the experiment, the area of the wound area was measured, which was compared with the area of the wound area on day 0, and a change in the area of the wound area was examined. As a result, the shrinkage of the wound area was reduced as the time of ethanol exposure was increased, and the shrinkage hardly occurred by the 300 sec exposure. Incidentally, the mouse subjected to 600 sec ethanol exposure died at 3 days after the experiment due to deterioration of systemic symptoms. In the case where the time of ethanol exposure was short such as 30 sec exposure or 60 sec exposure, the healing was delayed because the tissue around the wound area directly received degenerative damage due to ethanol, however, granulation tissue was formed in the wound area in one week after the ethanol exposure, and the wound area was covered with epidermal tissue in about 3 weeks and the healing was completed. The 60 sec exposure was to be a factor of delaying the shrinkage of the wound area, but there was no systemic symptom and its effect was sufficient, therefore, this mouse was adopted as an ulcer model of delayed skin wound healing.
As GM-CSF, a mouse-derived recombinant (R&D System) was used. A solution obtained by dissolving this GM-CSF in an atelocollagen solution at a concentration of 20 μg/100 μL was applied to an affected area of the above-mentioned ulcer model of delayed skin wound healing (60 sec ethanol exposure model) and coagulated, and evaluation was performed in the healing process for 7 days. Further, a group in which only an atelocollagen solution (a 3 mg/mL hydrochloric acid solution) was applied to the affected area and coagulated was used as a control. […] When the shrinkage of the wound area after 7 days was examined, the relative area of the wound area in the GM-CSF administration group was larger by about 15% than that of the control group, and the shrinking action of natural healing of a wound area was inhibited, and the wound area was exacerbated.

B1: GM-CSF: granulocyte macrophage colony stimulating factor, mouse-derived recombinant (R&D System), dissolved in atelocollagen solution (protein, UniProt P01587 18-141, looked up)
Granulocyte-macrophage …: APTRSPITVTRPWKHVEAIKEALNLLDDMPVTLNEEVEVVSNEFSFKKLTCVQTRLKIFEQGLRGNFTKLKGALNMTASYYQTYCPPTPETDCETQVTTYADFIDSLKTFLTDIPFECKKPGQK
- histology / symptoms of the wound area (edema, swelling) (20 μg/100 μL in atelocollagen solution, 7-day period): edema was noted
- thickness of granulation tissue compared with control group (20 μg/100 μL in atelocollagen solution, 7 days): slightly thicker
- relative area of the wound area, larger than that of the control group (20 μg/100 μL in atelocollagen solution, after 7 days, control atelocollagen only): about 15%
- wound healing effect on intractable skin ulcer (overall finding) (external application): does not have an effect on intractable skin ulcers; also recorded: does not have a wound healing accelerating effect
